{
  "source": "paper PMC7026264",
  "about": "“Crystal structures of N-terminal WRKY transcription factors and DNA complexes”",
  "binders": {"B1": {"name": "W-box DNA for ITC (dsDNA)", "DNA 1": "CGCCTTTGACCAGCGC", "DNA 2": "GCGCTGGTCAAAGGCG"}, "B2": {"name": "G7'C9' to A7'A9' (dsDNA)", "DNA 1": "CGCCTTTTATCAGCGC", "DNA 2": "GCGCTGATAAAAGGCG"}, "B3": {"name": "W-box DNA for EMSA (dsDNA)", "DNA 1": "CGCCTTTGACCAGCGC", "DNA 2": "GCGCTGGTCAAAGGCG"}, "B4": {"name": "T8' to A8' (dsDNA)", "DNA 1": "CGCCTTTGTCCAGCGC", "DNA 2": "GCGCTGGACAAAGGCG"}, "B5": {"name": "T6T7 to C6G7 (dsDNA)", "DNA 1": "CGCCTCGGACCAGCGC", "DNA 2": "GCGCTGGTCCGAGGCG"}, "B6": {"name": "G6' to T6' (dsDNA)", "DNA 1": "GCGCTTGTCAAAGGCG", "DNA 2": "CGCCTTTGACAAGCGC"}, "B7": {"name": "W-box DNA for crystallization (15 bp) (dsDNA)", "DNA 1": "AGCCTTTGACCAGCG", "DNA 2": "TCGCTGGTCAAAGGC"}},
  "key": {"AtWRKY1 101-339": {"target": "AtWRKY1 101-339 (Arabidopsis, UniProt Q9SI37-2 101-339)", "sequence (Q9SI37 other isoform, or with tags, fused parts or gaps)": "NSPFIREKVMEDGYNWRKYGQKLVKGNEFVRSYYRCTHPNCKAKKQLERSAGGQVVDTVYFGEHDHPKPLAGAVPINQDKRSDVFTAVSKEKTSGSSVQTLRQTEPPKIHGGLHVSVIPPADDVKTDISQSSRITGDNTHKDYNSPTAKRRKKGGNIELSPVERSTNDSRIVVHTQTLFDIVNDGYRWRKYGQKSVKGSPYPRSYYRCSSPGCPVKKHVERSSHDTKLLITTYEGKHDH", "test": "ITC; N=0.5, two DNA per protein; 0.11 mM protein into 0.026 mM DNA; ITC: 25 mM HEPES pH 7.0, 100 mM NaCl, 20 C, 0.25 mM protein into 0.026 mM DNA; EMSA: 25 mM HEPES pH 7.0, 100 mM NaCl, 5% glycerol, 6 pmol DNA in 6 ul, 4 C 20 min", "details": "protein: recombinant; tags: C-terminal His; blunt"}, "AtWRKY1-N [1]": {"target": "T1, AtWRKY1-N (Arabidopsis, UniProt Q9SI37 108-169)", "T1 sequence (Q9SI37 108-169)": "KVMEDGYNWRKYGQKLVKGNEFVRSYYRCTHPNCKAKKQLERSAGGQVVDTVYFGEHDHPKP", "test": "ITC; ITC: 25 mM HEPES pH 7.0, 100 mM NaCl, 20 C, 0.25 mM protein into 0.026 mM DNA; EMSA: 25 mM HEPES pH 7.0, 100 mM NaCl, 5% glycerol, 6 pmol DNA in 6 ul, 4 C 20 min", "details": "protein: recombinant; tags: C-terminal His; blunt"}, "AtWRKY1-C": {"target": "AtWRKY1-C (Arabidopsis, UniProt Q9SI37 301-366)", "sequence (Q9SI37 301-366)": "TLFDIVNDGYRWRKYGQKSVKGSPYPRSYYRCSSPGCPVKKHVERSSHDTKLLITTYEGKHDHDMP", "test": "ITC; ITC: 25 mM HEPES pH 7.0, 100 mM NaCl, 20 C, 0.25 mM protein into 0.026 mM DNA; EMSA: 25 mM HEPES pH 7.0, 100 mM NaCl, 5% glycerol, 6 pmol DNA in 6 ul, 4 C 20 min", "details": "protein: recombinant; tags: C-terminal His; blunt"}, "AtWRKY1-N Q121A": {"target": "AtWRKY1-N Q121A (Arabidopsis, UniProt Q9SI37 108-169, Q121A)", "sequence (Q9SI37 108-169 Q121A)": "as the sequence (Q9SI37 108-169) above, with Q14A counted along it", "test": "EMSA; ITC: 25 mM HEPES pH 7.0, 100 mM NaCl, 20 C, 0.25 mM protein into 0.026 mM DNA; EMSA: 25 mM HEPES pH 7.0, 100 mM NaCl, 5% glycerol, 6 pmol DNA in 6 ul, 4 C 20 min", "details": "protein: recombinant; tags: C-terminal His; label: 5' Cy3 on strand 1; blunt"}, "AtWRKY1-N K118A": {"target": "AtWRKY1-N K118A (Arabidopsis, UniProt Q9SI37 108-169, K118A)", "sequence (Q9SI37 108-169 K118A)": "as the sequence (Q9SI37 108-169) above, with K11A counted along it", "test": "EMSA; ITC: 25 mM HEPES pH 7.0, 100 mM NaCl, 20 C, 0.25 mM protein into 0.026 mM DNA; EMSA: 25 mM HEPES pH 7.0, 100 mM NaCl, 5% glycerol, 6 pmol DNA in 6 ul, 4 C 20 min", "details": "protein: recombinant; tags: C-terminal His; label: 5' Cy3 on strand 1; blunt"}, "AtWRKY1-N R117A": {"target": "AtWRKY1-N R117A (Arabidopsis, UniProt Q9SI37 108-169, R117A)", "sequence (Q9SI37 108-169 R117A)": "as the sequence (Q9SI37 108-169) above, with R10A counted along it", "test": "EMSA; ITC: 25 mM HEPES pH 7.0, 100 mM NaCl, 20 C, 0.25 mM protein into 0.026 mM DNA; EMSA: 25 mM HEPES pH 7.0, 100 mM NaCl, 5% glycerol, 6 pmol DNA in 6 ul, 4 C 20 min", "details": "protein: recombinant; tags: C-terminal His; label: 5' Cy3 on strand 1; blunt"}, "AtWRKY1-N Y119A": {"target": "AtWRKY1-N Y119A (Arabidopsis, UniProt Q9SI37 108-169, Y119A)", "sequence (Q9SI37 108-169 Y119A)": "as the sequence (Q9SI37 108-169) above, with Y12A counted along it", "test": "EMSA; ITC: 25 mM HEPES pH 7.0, 100 mM NaCl, 20 C, 0.25 mM protein into 0.026 mM DNA; EMSA: 25 mM HEPES pH 7.0, 100 mM NaCl, 5% glycerol, 6 pmol DNA in 6 ul, 4 C 20 min", "details": "protein: recombinant; tags: C-terminal His; label: 5' Cy3 on strand 1; blunt"}, "AtWRKY1-N K144A": {"target": "AtWRKY1-N K144A (Arabidopsis, UniProt Q9SI37 108-169, K144A)", "sequence (Q9SI37 108-169 K144A)": "as the sequence (Q9SI37 108-169) above, with K37A counted along it", "test": "EMSA; ITC: 25 mM HEPES pH 7.0, 100 mM NaCl, 20 C, 0.25 mM protein into 0.026 mM DNA; EMSA: 25 mM HEPES pH 7.0, 100 mM NaCl, 5% glycerol, 6 pmol DNA in 6 ul, 4 C 20 min", "details": "protein: recombinant; tags: C-terminal His; label: 5' Cy3 on strand 1; blunt"}, "AtWRKY1-N K122A": {"target": "AtWRKY1-N K122A (Arabidopsis, UniProt Q9SI37 108-169, K122A)", "sequence (Q9SI37 108-169 K122A)": "as the sequence (Q9SI37 108-169) above, with K15A counted along it", "test": "EMSA; ITC: 25 mM HEPES pH 7.0, 100 mM NaCl, 20 C, 0.25 mM protein into 0.026 mM DNA; EMSA: 25 mM HEPES pH 7.0, 100 mM NaCl, 5% glycerol, 6 pmol DNA in 6 ul, 4 C 20 min", "details": "protein: recombinant; tags: C-terminal His; label: 5' Cy3 on strand 1; blunt"}, "AtWRKY1-N Y133A": {"target": "AtWRKY1-N Y133A (Arabidopsis, UniProt Q9SI37 108-169, Y133A)", "sequence (Q9SI37 108-169 Y133A)": "as the sequence (Q9SI37 108-169) above, with Y26A counted along it", "test": "EMSA; ITC: 25 mM HEPES pH 7.0, 100 mM NaCl, 20 C, 0.25 mM protein into 0.026 mM DNA; EMSA: 25 mM HEPES pH 7.0, 100 mM NaCl, 5% glycerol, 6 pmol DNA in 6 ul, 4 C 20 min", "details": "protein: recombinant; tags: C-terminal His; label: 5' Cy3 on strand 1; blunt"}, "AtWRKY1-N R135A": {"target": "AtWRKY1-N R135A (Arabidopsis, UniProt Q9SI37 108-169, R135A)", "sequence (Q9SI37 108-169 R135A)": "as the sequence (Q9SI37 108-169) above, with R28A counted along it", "test": "EMSA; ITC: 25 mM HEPES pH 7.0, 100 mM NaCl, 20 C, 0.25 mM protein into 0.026 mM DNA; EMSA: 25 mM HEPES pH 7.0, 100 mM NaCl, 5% glycerol, 6 pmol DNA in 6 ul, 4 C 20 min", "details": "protein: recombinant; tags: C-terminal His; label: 5' Cy3 on strand 1; blunt"}, "AtWRKY1-N [2]": {"target": "T1, AtWRKY1-N", "test": "ITC; ITC: 25 mM HEPES pH 7.0, 100 mM NaCl, 20 C, 0.25 mM protein into 0.026 mM DNA; EMSA: 25 mM HEPES pH 7.0, 100 mM NaCl, 5% glycerol, 6 pmol DNA in 6 ul, 4 C 20 min", "details": "protein: recombinant; tags: C-terminal His; blunt", "remark": "listed apart in the source"}, "AtWRKY1-N [3]": {"target": "T1, AtWRKY1-N", "test": "ITC; ITC: 25 mM HEPES pH 7.0, 100 mM NaCl, 20 C, 0.25 mM protein into 0.026 mM DNA; EMSA: 25 mM HEPES pH 7.0, 100 mM NaCl, 5% glycerol, 6 pmol DNA in 6 ul, 4 C 20 min", "details": "protein: recombinant; tags: C-terminal His; blunt", "remark": "listed apart in the source"}, "AtWRKY2-N": {"target": "AtWRKY2-N (Arabidopsis, UniProt Q9FG77 270-332)", "sequence (Q9FG77 270-332)": "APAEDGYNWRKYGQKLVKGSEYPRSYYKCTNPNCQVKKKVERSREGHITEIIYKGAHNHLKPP", "test": "crystal structure; 2.4 A; zinc finger; ITC: 25 mM HEPES pH 7.0, 100 mM NaCl, 20 C, 0.25 mM protein into 0.026 mM DNA; EMSA: 25 mM HEPES pH 7.0, 100 mM NaCl, 5% glycerol, 6 pmol DNA in 6 ul, 4 C 20 min", "details": "protein: recombinant; tags: C-terminal His; 5' overhang 1 nt at each end"}, "AtWRKY33-N": {"target": "AtWRKY33-N (Arabidopsis, UniProt Q8S8P5 185-242)", "sequence (Q8S8P5 185-242)": "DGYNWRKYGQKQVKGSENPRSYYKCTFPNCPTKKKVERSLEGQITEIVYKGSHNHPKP", "test": "crystal structure; 3.0 A; zinc finger; ITC: 25 mM HEPES pH 7.0, 100 mM NaCl, 20 C, 0.25 mM protein into 0.026 mM DNA; EMSA: 25 mM HEPES pH 7.0, 100 mM NaCl, 5% glycerol, 6 pmol DNA in 6 ul, 4 C 20 min", "details": "protein: recombinant; tags: C-terminal His; 5' overhang 1 nt at each end"}, "AtWRKY1-N [4]": {"target": "T1, AtWRKY1-N", "test": "crystal structure; 3.0 A; zinc finger; ITC: 25 mM HEPES pH 7.0, 100 mM NaCl, 20 C, 0.25 mM protein into 0.026 mM DNA; EMSA: 25 mM HEPES pH 7.0, 100 mM NaCl, 5% glycerol, 6 pmol DNA in 6 ul, 4 C 20 min", "details": "protein: recombinant; tags: C-terminal His; 5' overhang 1 nt at each end"}},
  "data": [
    {"binder": "B1", "values": [
      {"measurement": "Kd", "setting": "AtWRKY1 101-339", "value": 500, "unit": "nM"},
      {"measurement": "Kd", "setting": "AtWRKY1-N [1]", "value": "~100", "unit": "nM"},
      {"measurement": "Kd", "setting": "AtWRKY1-C", "value": 1300, "unit": "nM"}
    ]},
    {"binder": "B2", "values": [
      {"measurement": "Kd", "setting": "AtWRKY1-N [1]", "value": 7600, "unit": "nM"}
    ]},
    {"binder": "B3", "values": [
      {"measurement": "binding result", "setting": "AtWRKY1-N Q121A", "value": "no binding"},
      {"measurement": "binding result", "setting": "AtWRKY1-N K118A", "value": "binds"},
      {"measurement": "binding result", "setting": "AtWRKY1-N R117A", "value": "binds"},
      {"measurement": "binding result", "setting": "AtWRKY1-N Y119A", "value": "binds"},
      {"measurement": "binding result", "setting": "AtWRKY1-N K144A", "value": "no binding"},
      {"measurement": "binding result", "setting": "AtWRKY1-N K122A", "value": "no binding"},
      {"measurement": "binding result", "setting": "AtWRKY1-N Y133A", "value": "no binding"},
      {"measurement": "binding result", "setting": "AtWRKY1-N R135A", "value": "no binding"}
    ]},
    {"binder": "B4", "values": [
      {"measurement": "binding signal", "setting": "AtWRKY1-N [2]", "value": "12 fold decrease in affinity vs W-box"}
    ]},
    {"binder": "B5", "values": [
      {"measurement": "binding signal", "setting": "AtWRKY1-N [2]", "value": "4.5 fold decrease in affinity vs W-box"}
    ]},
    {"binder": "B6", "values": [
      {"measurement": "binding signal", "setting": "AtWRKY1-N [3]", "value": "2.5 fold decrease in affinity vs W-box"}
    ]},
    {"binder": "B7", "values": [
      {"measurement": "binding result", "setting": "AtWRKY2-N", "value": "binds"},
      {"measurement": "binding result", "setting": "AtWRKY33-N", "value": "binds"},
      {"measurement": "binding result", "setting": "AtWRKY1-N [4]", "value": "binds"}
    ]}
  ]
}
